Results from publication PMC5171940, “Structure of Crenezumab Complex with Aβ Shows Loss of β-Hairpin” (Scientific Reports, 2016).
Where no end group is shown, it is not given here.

Target: T1, Aβ monomers on the SPR chip: biotinylated Aβ 11–28 (Homo sapiens (from His13), UniProt P05067, also: biotin, position not given here)
T1 construct: amyloid-β peptide, residues 11-28; the methods name only 11–28; also called monomer Aβ chips
T1 chain: EVHHQKLVFFAEDVGSNK
Assay: SPR; BIAcore T200, single-cycle kinetics; biotinylated Aβ (11–28 or oligomeric 1–42) captured on streptavidin-coupled CM5 chip (100–200 RU); antibody as analyte 0.8–500 nM in HBS-P pH 7.4, 0.15 M NaCl; one-to-one Langmuir model
Details: both partners purified

B1: Crenezumab, fully humanized anti-Aβ monoclonal IgG4 (antibody, V domains shown)
VH: EVQLVESGGGLVQPGGSLRLSCAASGFTFSSYGMSWVRQAPGKGLELVASINSNGGSTYYPDSVKGRFTISRDNAKNSLYLQMNSLRAEDTAVYYCASGDYWGQGTTVTVSS
VL: DIVMTQSPLSLPVTPGEPASISCRSSQSLVYSNGDTYLHWYLQKPGQSPQLLIYKVSNRFSGVPDRFSGSGSGTDFTLKISRVEAEDVGVYYCSQSTHVPWTFGQGTKVEIK
notes: crenezumab VH: as the VH of the heavy chain of m1 (PDB 5KNA / 5KMV) but without the T108L change; IgG4 heavy chain constant region; as the light chain of m1 (unaltered crenezumab light chain); IgG4; also called full-length IgG4; copies: 2 + 2
Q: How did the Kd turn out when B1 was run?
A: Its Kd is 3 to 5 nM.
